Experimental findings from the DeepSol protein solubility set are described below.

A short description of this series: soluble on expression in E. coli; label from the status in PepcDB or PDB records.
Regarding “GHMKIVLKIFHAGSLSVPFEEYEKMFEKEHPNVDVEREPAGSVACVRKIIDLGKKADILASADYSLIPQMMMPKYADWYVMFARNEIVLAYTDKSKYKDEINSTNWYKILQRPDVKIGFSNPNDDPCGYRTQMVLQLAELYYKDPTIYDNLVLKHSNIKVEENNGTYLILVPKELDVDTNKLFVRSKETDLLAPLEAGAFDYLFIYKSVANQHHLKYIELPKEINLGYYEYADTYKKVALKIIAKNKTINAKPIVYGMTVPTNAPHKKEAIEFVKFVLGHPEVLENNGQPAI”, the “soluble on expression in E. coli” value is listed as “soluble”.

On to “GHMREMLQVERPKLILDDGKRTDGRKPDELRSIKIELGVLKNADGSAIFEMGNTKAIAAVYGPKEMHPRHLSLPDRAVLRVRYHMTPFSTDERKNPAPSRREIELSKVIREALESAVLVELFPRTAIDVFTEILQADAGSRLVSLMAASLALADAGIPMRDLIAGVAVGKADGVIILDLNETEAMWGEADMPIAMMPSLNQVTLFQLNGSMTPDEFRQAFDLAVKGINIIYNLEREALKSKYVEFKEEGV”, for which the “soluble on expression in E. coli” value is on record as “soluble”. In the case of “GIALVLIAAGLGLARLLLGPEVVAALVQRGNLVQTVVASGHIETPYRVEIASQITGTVKDVLVKEGEQVHQGQQLVAIEASELQASVVQAEGAVAQAQARVRQLRELTKPAADEALKQAQANLLNAQAAYERASKLAASGYGTKATLDDATKNLDVARTQVRTAELQVFTTSPGGSDFVMAETQLGQALANLNTAQARLGYATIVAPRDGVLITRNVERGTVVQPGKALLVLAPAGDIQIVVQIDEKNLGQLALGQHAMASADAYPDKRFDATLSYINPSVDINRASVEIKLKVDDPPDYLRQDMTVSVDIATARRDDVVIVPARAVNDAAAAPYVLKASGGRAVRQPVKLGLRGVGFYEVIDGLVPGDRVIPLATGVKPD”, the “soluble on expression in E. coli” value is on record as “soluble”. To “GIVNVPNPNNTKFQELARFAIQDYNKKQNAHLEFVENLNVKEQVVAGIMYYITLAATDDAGKKKIYKAKIWVKEWEDFKKVVEFKLV” belongs “soluble”; to “GKAVIAIHGGAGAISRAQMSLQQELRYIEALSAIVETGQKMLEAGESALDVVTEAVRLLEECPLFNAGIGAVFTRDETHELDACVMDGNTLKAGAVAGVSHLRNPVLAARLVMEQSPHVMMIGEGAENFAFARGMERVSPEIFSTSLRYEQLLAARKEGATVLDHSGAPLDEKQKMGAVGAVALDLDGNLAAATSTGGMTNKLPGRVGDSPLVGAGCYANNASVAVSCTGTGEVFIRALAAYDIAALMDYGGLSLAEACERVVMEKLPALGGSGGLIAIDHEGNVALPFNTEGMYRAWGYAGDTPTTGIYREKGDTVATQ”, “soluble”. Turning to “GLDNELSLVDGQDRTLTVQQWDTFLNGVFPLDRNRLTREWFHSGRAKYIVAGPGADEFEGTLELGYQIGGPGIQEVATFSVDVSGAEGGVAVSNAHGTVTGAAGGVLLRPFARLIASTGDSVTTYGEPWNMN”, the “soluble on expression in E. coli” value is recorded as “soluble”. For the sequence “GLETSSKKYSLGKTLGTGSFGIVCEVFDIESGKRFALKKVLQDPRYKNRELDIMKVLDHVNIIKLVDYFYTTGDEEPKPPQPPDDHNKLGGKNNGVNNHHKSVIVNPSQNKYLNVIMEYVPDTLHKVLKSFIRSGRSIPMNLISIYIYQLFRAVGFIHSLGICHRDIKPQNLLVNSKDNTLKLCDFGSAKKLIPSEPSVAYICSRFYRAPELMLGATEYTPSIDLWSIGCVFGELILGKPLFSGETSIDQLVRIIQIMGTPTKEQMIRMNPHYTEVRFPTLKAKDWRKILPEGTPSLAIDLLEQILRYEPDLRINPYEAMAHPFFDHLRNSYESEVKNNSNFPHGVNQNIPQLFNFSPYELSIIPGNVLNRILPKNFSPNYKH”, the “soluble on expression in E. coli” value was “soluble”. Regarding “GLFQFLRIVMRPSDQLLGLDEKGTIRTIDETGKASPIPGMVIYRFNSPLTYFNAPYFKRRLLEHAEQNKDVSCVVVDAVSSFTHLDLSVMATLADIHEVLKKRGIRLVLAGRKRRLRQWCELTGISTSEGGILLRADMYLAIKLSGSYLSAVGEGIVPTVQKEPDLEQPPKPIPEVA”, the “soluble on expression in E. coli” value is “not soluble”. For the sequence “GLIDSHVHPVVGDYTPRQQQLHWIDSTLHGGVTTLISAGEVHMPGRPKDIVGLKAMAIAAQRWYENFRPSGVKVMAGAPVIEHGMVEQDFKELADAGVKLLGEVGLGTVKDGKTARQMVDWARKYGIQSTIHTGGPSIPGSGLIDADMVLETGTDVIGHINGGHSALPDDQIMCLCESCTAGLEIVHNGNERAALLTLNTARELKQMDRIILGTDGPAGSGVQPLGILRMVAMLSALGNVPAEIAFCFANGNTARQRELDTGLLERGYAADFVLMDQAQHAPGKTILESVQLGNLPGVGMTVIDGVVCSERSRNTPPATRLPRIVS”, the “soluble on expression in E. coli” value was “not soluble”. As for “GMDVTIERVNDFDGYNWLPLLAKSSQEGFQLVERMLRNRREESFQEDGEAMFVALSTTNQVLACGGYMKQSGQARTGRIRHVYVLPEARSHGIGTALLEKIMSEAFLTYDRLVLYSEQADPFYQGLGFQLVSGEKITHTLDKTAFADSNR”, the “soluble on expression in E. coli” value is “soluble”.

With “GMELKSAEEKSLYYRNKIKEVIDEVGKVVVGQKYMINRLLIGICTGGHILLEGVPGLAKTLSVNTLAKTMDLDFHRIQFTPDLLPSDLIGTMIYNQHKGNFEVKKGPVFSNFILADEVNRSPAKVQSALLECMQEKQVTIGDTTYPLDNPFLVLATQNPVEQEGTYPLPEAQVDRFMMKIHLTYLDKESELEVMRRVSNMNFNYQVQKIVSKNDVLEIRNEINKVTISESLEKYIIELVFATRFPAEYGLEAEASYILYGASTRAAINLNRVAKAMAFFNNRDYVLPEDIKEVAYDILNHRIILNYEAEAEGISTRQIIETILRKVNITKA”, the “soluble on expression in E. coli” value is “soluble”.

With “GMEYQLQQLASLTLVGIKETYENGRQAQQHIAGFWQRCYQEGVIADLQLKNNGDLAGILGLCIPELDGKMSYMIAVTGDNSADIAKYDVITLASSKYMVFEAQGAVPKAVQQKMEEVHHYIHQYQANTVKSAPFFELYQDGDTTSEKYITEIWMPVKG”, the “soluble on expression in E. coli” value is given as “soluble”.

“GMFADNTLTPKEAVRLCALGTIASQPMRYSELAGSVRHFTSRIMGPSLELMGISIELLRYEGLVEAVDDGQGMEDDAMLAISAAGRRELHSLLTARLRPGSDLSKLVVALKMRFLGLMEAEERAHQIDLLIEGVDSELARLADLRGSDGEGGSALAAWLDHDMALLESRLAWLEDFRARL”: the “soluble on expression in E. coli” value is “soluble”. For “GMGSSRKVIITCAVTGAIHTPSMSPYLPVTPDEVAQASIGAAEAGAAVIHLHARDPRDGRPTQDPAAFAEFLPRIKSNTDAVINLTTGGSPHMTVEERLRPATHYMPELASLNMGSMNFGLYPMLERFKEFAHGWEREHLERSRDLVFKNTFADIEFILKTCGGNGTRFEFECYDTSHLYNLAHFVDRKLATPPFFVQTVFGLLGGIGPHPEDLAHMRRTADRLFGADYVWSILGAGRHQIPLASIGAAQGANVRVGLEDSLWIAPGELAETNAAQVRKIRQVIEGLSLEVASPAEARTMLGLKGPQNVNF”, the “soluble on expression in E. coli” value is “soluble”.

On to “GMHHQRKTHVDNNIAAVELAKAYRLLNHGPTVLVSARSQGIDNVMAAAWCCALDFAPPKLTVVLDKMTKTREFIEQSGMFVIQVPTVAQLQLTHRVGSQSLADDANKLLNCGVELFEMAGHDLPFVAGCSAWLACKLIPEPNNQLQYDLFIAEVIGAWADTQVFNHGHWHFDTAPADKRSLHYIAGGQFYAIGESFNAD”, for which the “soluble on expression in E. coli” value is given as “soluble”. To “GMHSAALLQKVDELPRLPKAIAELLDVVNNEDSTVKAVSEKLSHDPVLSARVLRLANSARFGCSREVGTIDDAVVRLGMQTLRTLVIASAVVGAVPKVEGFDLADFWGNTFEVAIICQELAKRLGTLPEEAFTCGILHSIGELLIVNGDPAVAATISAAVADGADRNLMEKELLGYDNAEIGALLAQSWKFTPHLVKGIQFQNHPKSAEPYSKLAGMLAMAKQIAADWDKIPDDERTSWLAQINILAGIKVDLGGLAEKLAKMHGQGMEMGKQLA” belongs “soluble”; to “GMKAADFTYVTVHGDNSRMSRLKAQYTMLFFYDPDCSNCRKFEKLFAEIPAFVEMVENGTLRVLAIYPDENREEWATKAVYMPQGWIVGWNKAGDIRTRQLYDIRATPTIYLLDGRKRVILKDTSMEQLIDYLATQAG”, “not soluble”.
